Article PMC11467045, “The hGID^GID4 E3 ubiquitin ligase complex targets ARHGAP11A to regulate cell migration” (Life Science Alliance, 2024)
Where no end group is shown, it is not given here.

T1: GID4^Δ1–115 (human, UniProt Q8IVV7 116-300)
T1 construct: also called recombinant GID4 lacking its N-terminal domain; source: E. coli Rosetta 2(DE3)pLysS, purified (Strep-Tactin, Ulp1 cleavage, size-exclusion chromatography); not shown: 2xStrepII, N-terminal, cleaved; Smt3, N-terminal, cleaved
T1 sequence (looked up): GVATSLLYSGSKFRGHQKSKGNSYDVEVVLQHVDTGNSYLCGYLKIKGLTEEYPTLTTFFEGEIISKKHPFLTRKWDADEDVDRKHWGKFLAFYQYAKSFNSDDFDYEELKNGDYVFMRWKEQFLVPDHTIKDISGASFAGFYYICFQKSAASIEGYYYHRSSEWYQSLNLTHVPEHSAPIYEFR


Experiments:
[1] = molecular target: T1, GID4^Δ1–115; assay: fluorescence polarisation; competition: 20 μM GID4^Δ1–115 and 20 nM PGLWKS-TAMRA, 10 min with twofold dilutions of unlabeled peptides in FP buffer; log(inhibitor) versus response, variable slope; conditions: both partners purified
[2] = molecular target: T1, GID4^Δ1–115; assay: fluorescence polarisation; saturation binding: 20 nM TAMRA-labeled peptide with indicated GID4^Δ1–115 concentrations, 10 min, FP buffer (20 mM MOPS pH 7.6, 100 mM NaCl, 25 mM D-trehalose, 1% glycerol, 0.01% Triton X-100, 0.1 g/l BSA); one site-specific binding model; conditions: both partners purified

| IC50 [1] | Kd [2] | Binder |
| --- | --- | --- |
| 30.3 µM | – | PGLWKS (control degron peptide, unlabeled) [unlabeled PGLWKS] |
| 83.4 µM | – | PGKLRSDAG (amino terminus of DDX21 (Owens et al, 2024), without the initiator methionine; also called N-terminal peptide of DDX21) |
| – | 2.4 µM | PGLWKS-{TAMRA} (control degron peptide (Dong et al, 2018); also called TAMRA-labeled control peptide PGLWKS) [PGLWKS-TAMRA] |
